Measured values reported in patent publication US20210292393A1 (published 2021).
Changes are numbered by the printed parent chain.

Assays:
[1] = molecular target: SARS-CoV-2 full length spike protein (wild type) (SARS-CoV-2, UniProt P0DTC2 14-1208)
[2] = molecular target: SARS-CoV-2 full length spike protein (wild type) (SARS-CoV-2, UniProt P0DTC2 14-1273)
[3] = molecular target: SARS-CoV-2 spike protein (wild type), spike protein trimer (SARS-CoV-2, UniProt P0DTC2 14-1208)
[4] = molecular target: SARS-CoV-2 full-length spike protein on pseudotyped lentivirus (SARS-CoV-2, UniProt P0DTC2 14-1273); assay: cell-based or functional assay

B1: antibody 263 (antibody, V domains shown)
VH: EVQLVQSGAEVKKPGATVKISCKVSGYTFTDYYMHWVQQAPGKGLEWMGLVDPEDGETIYAEKFQGRVTITADTSTDTAYMELSSLRSDDTAVYYCTTDLAFTIFGGRRGFDPWGQGTLVTVSS
VL: DIQLTQSPSFLSASVGDRVTITCRASQGISSYLAWYQQKPGKAPKLLIYAASTLQSGVPSRFSGSGSGTEFTLTISSLQPEDFATYYCQQLNSYDFGQGTRLEIK
binding signal, bead assay (fold over isotype) [1]: 722

B2: antibody 260 (antibody, V domains shown)
VH: EVQLVESGGGLVQPGRSLRLSCAASGFTFDYYAMHWVRQAPGKGLEWVSGISWNSGTIGYADSVKGRFTISRDNAKNSLYLQMNSLRAEDTALYYCAKDSRPSGRYYYGMDVWGQGTTVTVSS
VL: not shown
binding signal, bead assay (fold over isotype) [1]: 724

B3: antibody 260 (antibody, V domains shown)
VH: B2 VH
VL: not shown
median fluorescence intensity, fold over isotype control [2]: 10.3 fold over isotype

B4: anti-SARS-CoV-2 antibody 1118 (antibody, V domains shown)
VH: EVQLVESGGGLVQPGGSLRLSCAASGFRFSNYEMNWVRQAPGKGLEWVSYISSTGGSIFYADSVKGRFTISRGDAKNSVYLQMNSLRAEDTAVYYCARAMYYYGSGTLDYWGQGTLVTVSS
VL: DIQMTQSPSSLSASVGDRVTITCRASQSISRFLNWYQQKPGTAPKLLIYDVSSLQSGVPTRFSGSGSGTDFTLTISSLQPEDFATYYCQQSYTTPPAFGPGTRVDIK
Kd [3]: 223 pM | Pseudo-neutralization IC50 [4]: 0.026 µg/mL

B5: anti-SARS-CoV-2 antibody 1009 (antibody, V domains shown)
VH: QLQLQESGPGLVKPSQTLSLTCTVSGGSISSGSYYWSWIRQPAGKGLEWIGSIYTSGSTYYNPSLKSRVTISVDTSKNQFSLKLSSVTAADTAVYYCARKNWLQGSFDYWGQGTLVIVSS
VL: NFMLTQPHSVSESPGKTVTISCTRSSGSIANNYVQWYQQRPGSAPTTVIYEDNQRPSGVPDRFSGSIDSSSNSASLTISGLKTEDEADYYCQSYDTSNHGVFGGGTKLTVL
Kd [3]: 168 pM | Pseudo-neutralization IC50 [4]: 0.17 µg/mL

B6: anti-SARS-CoV-2 antibody 1098 (antibody, V domains shown)
VH: DVQLVQSGAEVKKPGESLKISCKGSGYRFTSYWIAWVRQMPGKGLEWMGIIYPGDSDTRYSPSFQGQVTISADKSISTAYLQWSSLKASDTAMYYCASQAAAGYFYYMDVWGKGTTVTVSS
VL: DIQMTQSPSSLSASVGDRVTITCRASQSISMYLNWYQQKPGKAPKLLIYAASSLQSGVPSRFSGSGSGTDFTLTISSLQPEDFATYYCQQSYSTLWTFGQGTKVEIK
Kd [3]: 173 pM | Pseudo-neutralization IC50 [4]: 0.087 µg/mL

B7: anti-SARS-CoV-2 antibody 1203 (antibody, V domains shown)
VH: QLRLQESGPGLVKPSETLSLTCTVSGGSISSSNFYWGWIRQPPGKGLEWIGSIYYSGSTHYNPSLKSRVTVSVDTSKNQFSLKLSSVTAADTAVYYCARLTYYYDSSGFIRAEPFDYWGQGILVTVSS
VL: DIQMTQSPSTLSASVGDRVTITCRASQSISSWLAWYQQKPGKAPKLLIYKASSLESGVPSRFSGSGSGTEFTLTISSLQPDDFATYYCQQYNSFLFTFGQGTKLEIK
Kd [3]: 302 pM | Pseudo-neutralization IC50 [4]: 0.02 µg/mL

B8: antibody 299 (antibody, V domains shown)
VH: not shown
VL: EIVLTQSPATLSLSPGERATLSCRASQSVSSYLAWYQQKPGQAPRLLIYDASNRATGIPARFSGSGSGTDFTLTISSLEPEDFAVYYCQQRSNWPWTFGQGTKVEIK
binding signal, bead assay (fold over isotype) [1]: 1.43

B9: antibody 294 (antibody, V domains shown)
VH: EVQLVESGGGLVQPGGSLRLSCAASGFTVSSNYMNWVRQAPGKGLEWVSVIYSGGSTYYADSVKGRFTISRDNSKNTLYLQMNSLRAEDTAVYYCARDLGPSGMDVWGQGTTVTVSS
VL: DIQMTQSPSSVSASVGDRVTITCRASQGISSWLAWYQQKPGKAPKLLIYAASSLQSGVPSRFSGSGSGTDFTLTISSLQPEDFATYYCQQANSFPLFGGGTKVEIK
median fluorescence intensity, fold over isotype control [2]: 22.2 fold over isotype

B10: antibody 294 (antibody, V domains shown)
VH: B9 VH
VL: B9 VL
binding signal, bead assay (fold over isotype) [1]: 1230

B11: antibody 288 (antibody, V domains shown)
VH: EVQLVESGGGLVQPGGSLRLSCAASGFTFSSYDMHWVRQATGKGLEWVSAIGTAGDTYYPGSVKGRFTISRENAKNSLYLQMNSLRAGDTAVYYCARGANRDYDILTGYYSYYYYGMDVWGQGTTVTVSS
VL: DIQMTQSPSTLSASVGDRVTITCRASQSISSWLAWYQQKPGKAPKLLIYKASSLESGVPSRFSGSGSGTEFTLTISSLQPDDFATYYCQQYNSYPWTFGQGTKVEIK
binding signal, bead assay (fold over isotype) [1]: 495

B12: antibody 266 (antibody, V domains shown)
VH: QVQLVESGGGVVQPGRSLRLSCAASGFNLSNYAMHWVRQPSGKGLEWVSLISYDGSIKYYTDSVKGRFTVSGDNSKNTLFLQMNSLRPDDSALYYCVRGGVSGPNSFDMWGQGTTVTVSS
VL: DVVMTQSPLSLPVTLGQPASISCRSSQSLVYSDGNTYVNWFQQRPGQSPRRLIYQVSIRASGVPDRFSGSGSGTDFALKISRVEAEDVGVYYCMQGTHWPVTFGQGTKVEIK
binding signal, bead assay (fold over isotype) [1]: 473

B13: antibody 303 (antibody, V domains shown)
VH: B12 VH with N31S, P40A, T61A, T78M, P88A, S106A, M109I
VL: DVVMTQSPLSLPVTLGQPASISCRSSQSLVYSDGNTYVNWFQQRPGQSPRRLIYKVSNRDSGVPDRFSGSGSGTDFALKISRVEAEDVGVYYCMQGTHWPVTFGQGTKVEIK
binding signal, bead assay (fold over isotype) [1]: 341

B14: anti-SARS-CoV-2 antibody 933 (antibody, V domains shown)
VH: QVQLVQSGAEVKKPGASVKVSCKASGYTFTTYDINWVRQATGQGLEWMGWMNPNSGYTDSAQKFQGRVTMTRNTSISTAYMELSSLRSEDTAVYYCASGRGVKTYYFDYWGQGTLVTVSS
VL: SYELTQPPSVSVSPGQTASITCSGDKLGDKSACWYQQKPGQSPVLVICQDTKRPSGIPERFSGSNSGNTATLTISGTQAMDEADYYCQAWDSRTVVFGGGTKLTVL
Kd [3]: 276 pM | Pseudo-neutralization IC50 [4]: 0.022 µg/mL

B15: antibody 300 (antibody, V domains shown)
VH: QVQLVESGGGVVQPGRSLTLSCAASGFTFSSYAMHWVRQAPGKGLEWVALISYDGNNKYYADSVKGRFTFSRDNSKNTLYLQMNSLRAEDTAVYYCARTNSGSYRTAFDYWGQGTLVTVSS
VL: DIQMTQSPSTLSASVGDRVTITCRASQSISIWLAWYQQKPGKAPKLLIYKASSLESGVPSRFSGSGSGTEFTLTISSLQPDDFATYYCQQYNSLWTFGQGTKVEIK
median fluorescence intensity, fold over isotype control [2]: 9.71 fold over isotype

B16: antibody 300 (antibody, V domains shown)
VH: B15 VH
VL: B15 VL
binding signal, bead assay (fold over isotype) [1]: 721

B17: antibody 301 (antibody, V domains shown)
VH: QVQLVQSGAEVKKPGASVKVSCKVSGYTLTELSMHWVRQAPGKGLEWMGGFDPEDGETIYAQKFQGRVTMTEDTSTDTAYMELSSLRSEDTAVYYCATAFCGGDCYPPDALDIWGQGTMVTVSS
VL: DIQMTQSPSSVSASVGDRVTITCRASQGISSWLAWYQQKPGKAPKLLIYAASSLQSGVPSRFSGSGSGTDFTLTISSLQPEDFATYYCQQANSFPLTFGGGTKVEIK
median fluorescence intensity, fold over isotype control [2]: 29.7 fold over isotype

B18: antibody 301 (antibody, V domains shown)
VH: B17 VH
VL: B17 VL
binding signal, bead assay (fold over isotype) [1]: 865

B19: antibody 317 (antibody, V domains shown)
VH: QVQLVQSGAEVKKPGASVKVSCKVSGYTLTELSMHWVRQAPGKGLEWMGGFDPEDGETIYAQKFQGRVTMTEDTSTDTAYMELSSLRSEDTAVYYCASSPAAAGTSQYYYYYGMDVWGQGTTVTVSS
VL: not shown
median fluorescence intensity, fold over isotype control [2]: 11.2 fold over isotype

B20: anti-SARS-CoV-2 antibody 923 (antibody, V domains shown)
VH: EVQLVESGGGVVRPGGSLRLSCAASGFIFDDYDMTWVRQAPGKGLEWVSGISWNGGNTGYADSVKGRFTISRDNAKNSLYLQMNSLRAEDTALYHCAVIMSPIPRYSGYDWAGGAFDIWGQGTMVTVSS
VL: SSELTQDPAVSVALGQTVRITCQGDSLRSYYASWYQQKPGQVPILVIYDKNNRPSGIPDRFSGSSSGNTASLTITGAQAEDEADYYCNSRDSSGNAVVFGGGTKLTVL
Kd [3]: 35 pM | Pseudo-neutralization IC50 [4]: 0.093 µg/mL

B21: antibody 295 (antibody, V domains shown)
VH: QVQLQESGPGLVKPSQTLSLTCTVSGGSISSSDYYWSWIRQPPGKGLEWIGYIYYSGSTYYNPSLKSRVTISVDTSKNQFSLKLSSVTAADTAVYYCARVVGYCSSTSCYVDYWGQGTLVTVSS
VL: EIVLTQSPATLSLSPGERVTLSCRASQSVSSYLAWYQQKPGQAPRLLIYDASNRATGIPARFSGSGSGTDFTLTISSLEPEDFAVYYCQQRSNWPPGLTFGGGTKVEIK
median fluorescence intensity, fold over isotype control [2]: 9.67 fold over isotype

B22: antibody 295 (antibody, V domains shown)
VH: B21 VH
VL: B21 VL
binding signal, bead assay (fold over isotype) [1]: 599

B23: antibody 290 (antibody, V domains shown)
VH: QVHLVQSGAEVKKPGASVKVSCAASGYTFNNYGVSWVRQAPGQGLEWMGWISASNGNTKYAQNLQGRVTMTTDTSTSTAYMELRSLRSDDTAVYYCARDLVGPTAPNYYYGMDVWGQGTAVTVSS
VL: QSVLTQPPSVSGAPGQRVTISCTGSSSSIGAGYDVHWYQQLPGTAPKLLIYANSNRPSGVPDRLSGSKSGTSASLAITGLQAEDEADYYCQSYDSSLSGYVFGTGTKVTVL
binding signal, bead assay (fold over isotype) [1]: 1.16
